Assay [1] has as its target native constant domain of human IgG1 coexpressed with fucosyltransferase (human, UniProt P01857-1 99-330 = IgG part). Briefly: not described.
Assay [2] has as its target T1, ELAM-Rg, soluble ELAM-1-IgG1 chimera (ELAM-1 extracellular domain fused to hinge, CH2 and CH3 domains of … (human, UniProt P16581 22-556, limits assumed)).
T1 construct: extracellular domain; Made in COS cells, recovered on protein A-agarose; appeared as disulfide-linked dimers; In adhesion assays it was captured on dishes coated with goat anti-human IgG; also called ELAM-1-Rg; ELAM-1-IgG1 fusion protein; not shown: human IgG1 hinge, CH2 and CH3 domains (genomic fragment of Aruffo et al., Cell 61:1303, 1990)
T1 sequence (looked up): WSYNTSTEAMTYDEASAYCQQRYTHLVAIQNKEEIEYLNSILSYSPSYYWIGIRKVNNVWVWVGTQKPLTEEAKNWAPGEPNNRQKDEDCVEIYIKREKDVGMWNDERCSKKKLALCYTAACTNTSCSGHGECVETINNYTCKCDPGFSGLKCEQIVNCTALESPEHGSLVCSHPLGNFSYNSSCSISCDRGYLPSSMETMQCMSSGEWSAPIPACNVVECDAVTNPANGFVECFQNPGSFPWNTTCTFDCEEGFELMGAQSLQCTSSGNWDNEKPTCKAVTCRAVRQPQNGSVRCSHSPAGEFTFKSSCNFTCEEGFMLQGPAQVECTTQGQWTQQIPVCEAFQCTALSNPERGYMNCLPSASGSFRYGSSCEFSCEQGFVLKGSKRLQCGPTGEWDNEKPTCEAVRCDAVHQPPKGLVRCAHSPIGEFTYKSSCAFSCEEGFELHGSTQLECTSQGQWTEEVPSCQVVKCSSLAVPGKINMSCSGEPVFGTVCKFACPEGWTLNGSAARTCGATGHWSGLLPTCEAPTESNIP
Briefly: solid phase: α1-AGP adsorbed to wells, ELAM-Rg at 1 µg/ml, radioiodinated goat anti-human IgG, gamma counter. The method, then: Amniotic fluid fucosyltransferase was isolated by affinity chromatography and evaluated for its ability to convert α_1-AGP into an ELAM-1 ligand as follows. α(1,3) fucosyltransferase was isolated from concentrated amniotic fluid by fetuin-agarose chromatography as previously described in Hanisch et al. (*Carbohydr. Res.* 178:23, 1988) and Mitsakos et al. (*Biol. Chem. Hoppe-Seyler* 369:661, 1988). 0.8 μCi GDP^14C-fucose (225 Ci/mole) and 100 μg of bovine α_1-AGP (Sigma, St. Louis, Mo.) were added to a reaction mix containing 25 mM Tris-HCl pH 7.0, 35 mM MgCl_2 and 1 mM ATP in a final volume of 120 μl. The reaction was allowed to proceed for 24 h. at 37°, at which time approximately 10% of the ^14C-labeled fucose had been incorporated into TCA-insoluble material. Unincorporated label was removed by centrifugal ultrafiltration (Centricon 10, Amicon, Danvers, Mass.). 20 μl of a 1:5 dilution of the labelled material, or 10 μl of a 1:5 dilution of a similarly constituted reaction mixture lacking labelled GDP-fucose, was adsorbed to plastic dishes (as described above) or to 96 well microtiter plates (Falcon 3911, Becton Dickinson, Oxnard, Calif.). […] Following washing, labelled antibody binding was measured in a gamma counter. Results shown in FIG. 9 are expressed as the mean±standard deviation of quadruplicate determinations and are representative of two independent experiments.

B1: ELAM-1 (form in this assay not stated) (receptor, UniProt P16581 22-556, looked up)
chain: WSYNTSTEAMTYDEASAYCQQRYTHLVAIQNKEEIEYLNSILSYSPSYYWIGIRKVNNVWVWVGTQKPLTEEAKNWAPGEPNNRQKDEDCVEIYIKREKDVGMWNDERCSKKKLALCYTAACTNTSCSGHGECVETINNYTCKCDPGFSGLKCEQIVNCTALESPEHGSLVCSHPLGNFSYNSSCSISCDRGYLPSSMETMQCMSSGEWSAPIPACNVVECDAVTNPANGFVECFQNPGSFPWNTTCTFDCEEGFELMGAQSLQCTSSGNWDNEKPTCKAVTCRAVRQPQNGSVRCSHSPAGEFTFKSSCNFTCEEGFMLQGPAQVECTTQGQWTQQIPVCEAFQCTALSNPERGYMNCLPSASGSFRYGSSCEFSCEQGFVLKGSKRLQCGPTGEWDNEKPTCEAVRCDAVHQPPKGLVRCAHSPIGEFTYKSSCAFSCEEGFELHGSTQLECTSQGQWTEEVPSCQVVKCSSLAVPGKINMSCSGEPVFGTVCKFACPEGWTLNGSAARTCGATGHWSGLLPTCEAPTESNIP
Turning to B1, in assay [1], the binding result is given as “no binding”.

B2: bovine α1-acid glycoprotein fucosylated in vitro with amniotic fluid α(1,3)fucosyltransferase and GDP-fucose (other, UniProt Q3SZR3 19-202, looked up)
chain: QSPECANLMTVAPITNATMDLLSGKWFYIGSAFRNPEYNKSARAIQAAFFYLEPRHAEDKLITREYQTIEDKCVYNCSFIKIYRQNGTLSKVESDREHFVDLLLSKHFRTFMLAASWNGTKNVGVSFYADKPEVTQEQKKEFLDVIKCIGIQESEIIYTDEKKDACGPLEKQHEEERKKETEAS
modifications: N-linked glycans fucosylated in vitro (sialyl-Le^X determinants)
notes: Adsorbed to plastic or to microtiter wells; also called in vitro-fucosylated α1-acid glycoprotein; enzymatically-fucosylated α1-AGP
In the case of B2, the binding result in assay [2] is “binds”.

Source of the values: patent publication US6613746 (GENERAL HOSPITAL, dated 2003).
